In article PMC4703388, “Conformational Sampling and Binding Site Assessment of Suppression of Tumorigenicity 2 Ectodomain” (PLoS ONE, 2016):
Where two headings read alike, the source gives them in different places.

B1: IL-33 (residues 112-270) (ligand, UniProt O95760 112-270, looked up)
chain: SITGISPITEYLASLSTYNDQSITFALEDESYEIYVEDLKKDEKKDKVLLSYYESQHPSNESGDGVDGKMLMVTLSPTKDFWLHANNKEHSVELHKCEKPLPDQAFFVLHNMHSNCVSFECKTDPGVFIGVKDNHLALIKVDSSENLCTENILFKLSET
notes: Interleukin-33, residues 112-270; Used unlabelled as the analyte in BLI; source: E. coli Rosetta2 (DE3), purified (Ni-NTA, TEV cleavage, second Ni-NTA, Superdex 75); not shown: His6, N-terminal, cleaved
B2: ST2 ectodomain, D1-D3 domains (sequence 19-323) (domain or fragment)
chain: KFSKQSWGLENEALIVRCPRQGKPSYTVDWYYSQTNKSIPTQERNRVFASGQLLKFLPAAVADSGIYTCIVRSPTFNRTGYANVTIYKKQSDCNVPDYLMYSTVSGSEKNSKIYCPTIDLYNWTAPLEWFKNCQALQGSRYRAHKSFLVIDNVMTEDAGDYTCKFIHNENGANYSVTATRSFTVKDEQGFSLFPVIGAPAQNEIKEVEIGKNANLTCSACFGKGTQFLAAVLWQLNGTKITDFGEPRIQQEEGQNQSFSNGLACLDMVLRIADVKEEDLLLQYDCLALNLHGLRRHTVRLSRKNP
modifications: biotinylated with Biotin-PEO4 linker (equimolar ratio)

Key:
IL-33 (Homo sapiens) = IL-33 (Homo sapiens) (UniProt O95760); assay: ITC; conditions: cited from earlier work
IL-1α (Homo sapiens) = IL-1α (Homo sapiens) (UniProt P01583); conditions: cited from earlier work
IL-1Ra (Homo sapiens) = IL-1Ra (Homo sapiens) (UniProt P18510); conditions: cited from earlier work
IL-1β (Homo sapiens) [1] = target: IL-1β (Homo sapiens) (UniProt P01584); conditions: cited from earlier work
IL-1β (Homo sapiens) [2] = target: IL-1β (Homo sapiens) (UniProt P01584); conditions: cited from earlier work; remark: listed apart in the source
[3] = target: ST2 D1-D2 domain (sequence 19-206) (UniProt Q01638 19-206, biotinylated with Biotin-PEO4 linker (equimolar ratio)); assay: BLI; OctetRED96; biotinylated ST2 loaded on streptavidin sensors (20 ug/mL, 10 min), serial dilutions of IL-33 in solution; 25 C; 10 mM HEPES pH 7.5, 150 mM NaCl, 0.005% Tween 20, 100 uM EDTA; 1:1 binding model, KD calculated from kon and koff; conditions: both partners purified
IL-33 (residues 112-270) = target: B1; assay: as above; conditions: both partners purified

IL-1β (Homo sapiens), sequence (P01584 117-269): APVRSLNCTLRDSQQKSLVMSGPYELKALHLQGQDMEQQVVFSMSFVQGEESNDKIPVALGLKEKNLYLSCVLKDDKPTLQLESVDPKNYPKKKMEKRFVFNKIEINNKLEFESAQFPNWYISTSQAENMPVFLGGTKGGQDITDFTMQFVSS
IL-1Ra (Homo sapiens), sequence (P18510 26-177): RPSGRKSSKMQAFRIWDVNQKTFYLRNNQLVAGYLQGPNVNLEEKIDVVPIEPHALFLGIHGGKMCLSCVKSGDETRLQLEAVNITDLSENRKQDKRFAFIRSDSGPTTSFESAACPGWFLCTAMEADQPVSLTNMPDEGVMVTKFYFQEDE
IL-1α (Homo sapiens), sequence (P01583 113-271): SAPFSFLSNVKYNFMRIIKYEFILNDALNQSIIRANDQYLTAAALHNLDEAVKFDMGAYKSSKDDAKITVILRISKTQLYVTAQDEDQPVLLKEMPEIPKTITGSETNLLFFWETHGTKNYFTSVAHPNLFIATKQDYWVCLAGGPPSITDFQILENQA

Molecule: ST2 ECD (from UniProt Q01638)
Kd (IL-33 (Homo sapiens)): 5 nM

Molecule: IL-1R1 D1-D2 (from UniProt P14778)
Kd (IL-1α (Homo sapiens)): 7000 nM
Kd (IL-1Ra (Homo sapiens)): 28 nM
Kd (IL-1β (Homo sapiens) [1]): > 10000 nM

Molecule: IL-1R1 D1-D3 (from UniProt P14778)
Kd (IL-1β (Homo sapiens) [2]): 2 nM

Molecule: B1
Kd [3]: 65.1 nM
koff [3]: 0.215 s⁻¹
kon [3]: 3.3e+06 M⁻¹ s⁻¹

Molecule: B2
Kd (IL-33 (residues 112-270)): 2.23 nM
koff (IL-33 (residues 112-270)): 0.00115 s⁻¹
kon (IL-33 (residues 112-270)): 516000 M⁻¹ s⁻¹
